Assay results: the DeepSol protein solubility set

test: soluble on expression in E. coli; label from the status in PepcDB or PDB records

Sequence	soluble on expression in E. coli
MGSDKIHHHHHHMRWGGASPIEATVRDLSLSRIYMRVTGDSLSTNAQDCPSSEILRIAVVSSPRSGNSWIRSTLAGALSMQEIAIHNYLDAPAVLPQRCFLQIHWYREPNFQAWLRENQFRVLTVARHPLDVLVSALHYIRYEPGTSRWLEGNVKLPGELANASPSSPEFLEYALGMGAEDLLSITYQWWNDPEVLRLRYEDAVANPEVVLGNQIAALGGSAQDVVPWLARLSIDKMRATPNRHGWQGSPGLWRRLIVPQDAIRIYRRHRRIFDTLGYTIRPYFLTRASAYRNWMERL	not soluble
MGSDKIHHHHHHMETLRILHTNDLHSHFEHFPKIGRYLKKAQADNSVDEVYTFDAGDFMDRSHPLTDATEGQANIKLMNGFKYTAVTIGNNEGISNPHWVLEHLFDHADFPTVLANLREEDESMPNWAIGHKILTTKKNTRIALIGLTAAYPMTYGPNHWHVKMLGSTMDKELAKINGQYDMLILITHIGLKMDRWLAKNYPQIDLIVGGHSHDLIVQGEKVDHTWITQTGKWGNYVGDIHVELEDHHVTKIVPNTVATASMPEEPEDESVIKGYYEKGKQLLSERKVAKLPEKFADDKIAAVQVSLDAIADFAKTDLAILSSGLFLTPFKSGILTQFDLQNALPHPMHVVRSTLKGSDLWRLVMEIEKNRHYLDHFPLQGMSFRGKIFGQMYYKGIKVDMRKRIVYVNGQEINPDSEYRIACLDHYVLVPFFPTLAIVGENEFLFPQFLREVVGDYLAKKYPLPARSEIND	not soluble
MGSDKIHHHHHHMESTMKLATAPDAWGVWYADDPRQTPWERYLDEVRDSGFTATETGPWGYLPTDPSHLTDALGSRGLSVCGSALVHLLAPADAMETLRPRLEQTCGLLKAMKAEWVVLMDDSDLPLPGQSRALSPHDWASMIRNIKDAARYVTEEHGLSFVFHPHVGSGVETEAEVIRLLEETSEDSVGLCFDFGHHAYTGADAVAFMKRYADRIPYYHFKNVDPVLLAHIRQNNINFIEGFQSGVMCELDKGMVDFAEVRDFLATRGFDGYAVYEQDMYPCPPEKPFPIACHNRQVLRELGI	not soluble
MHHHHHHSSGRENLYFQGERVFGCDLGEHLLNSGFEVPQVLQSCTAFIERYGIVDGIYRLSGVASNIQRLRHEFDSEHVPDLTKEPYVQDIHSVGSLCKLYFRELPNPLLTYQLYEKFSDAVSAATDEERLIKIHDVIQQLPPPHYRTLEFLMRHLSLLADYCSITNMHAKNLAIVWAPNLLRSKQIESACFSGTAAFMEVRIQSVVVEFILNHVDVLFSGRISMAMQE	soluble
RDHIILIGWNEKTNRLLKDLQLGAPSKTVVLIDESLTEGPLIENVHFIRGHAADDGTLKRANITEAESVMITADQYKSETDADMLSVLTLLSVKGLNPLAYCIVEILTDRFVTNAERAGANQIIGTSEFISRAMLQHYQVKLR	not soluble
MSLIYLRKANERGHANHGWLDSWHTFSFANYYDPNFMGFSALRVINDDVIEAGQGFGTHPHKDMEILTYVLEGTVEHQDSMGNKEQVPAGEFQIMSAGTGIRHSEYNPSSTERLHLYQIWIMPEENGITPRYEQRRFDAVQGKQLVLSPDARDGSLKVHQDMELYRWALLKDEQSVHQIAAERRVWIQVVKGNVTINGVKASTSDGLAIWDEQAISIHADSDSEVLLFDLPPVEGGSHHHHHH	soluble
MHMEQDVNAALRPAYRHRYLQKGHHHSRNAVVDHQELTEKLNRLTSTSSLGSSLPSLSSLHSNSSIGTMPSAKIGDGSTSSLPMSSAKPMSTQTSEPQLPDVPEPNESLHNKTIDEFQKDQEKCDRLKARKAELEMRLRQKMQELKDVCVEEGDITGEMPVEINDVVLPGDDFPRLKRRVGTAYSIPDELIKADKADKMSQLETDVELHRRIVAAASRLATDKNTNKSVRKKRQKDLQAARLRLNRLEQGLQQMRHSASKPDISSLTSDSSNSWTASNSSGPMLTMAMTKSCPTTPRGSVPDLRNGLDDEKDEFDENVEDRVSRRAPSAISRHSLSQRYSGVSSSSTSSGSDSMGLGLPPRPTSRKSQQQQTTPFDDQLDNPMICEIPPPPSSAAAHPLYENVGYRSTSYRSSYRQAHYPTIQDEHTQRKRAQSAHSISTDNGATGRTSTYSVPLNDAAQKFREYDYDDEEDSTPTMDLPSHLINVRRLTSSISCQAGFATASLDRRYSKLNGGRLSSGGGGSDDVVRQNVTTRITTFPVATSAATVILSGKPYSASELPRFQPPPPVARVTHMPRGSLPPYSSATMGAQSPAPPPNGKLPTNPQMEALLSYYKQQQQQQHQQQSRSAPSQQPKTATIV	not soluble
MGSDKIHHHHHHMIQTYILKIQSLKWAQREMLKTTLITDTLGHVTSTEPTTTAHVPLPDGSSTPVQIWASDNKDSQLVMLWPGFGMGGYYYRPLAAALNKAGFHVAIGELRGQGQSSAKASRKSQWGYHDLASVDFPLQIAAAKKALDLEEGHPMRFLSHSMGGQISCLFAARPEAEKYNLRAIFGVGAGSPFRPTFSPKMGKRLGLGAVLLGGIGGHIVGFWPGKVLGKDLVGYGRQSGTHMREWRRFHKHNSLDDLTAQDINYVEVMKKVSIPITFSRCPDDEDCPQASIDGLASFVPAAQIKMIEIPEALGHNRWAREPESTVKLFLEQAL	not soluble
MGSDKIHHHHHHMFTQDESYIKWKLFLEGDDQAYSWIYTHYIQVLYNYGLQITPDSEIVKDCIQDVFVKIYKAKKKLTVPQNPKVYLMIALKNNIYNTFNQERLQKNYAFSLYQTEEQLTVKNEFIDQEARHEEMNNIKRMMKILTPRQREVIYYRFIEELSYDDICQIMGLNYQSAYNLLQRSLQKIREAYGVTGIWMLILHQLTYLH	not soluble
MERIALFIDGANVYAAAKRLGWNFDHRKILEHFAGLGALYNAFYYTAVPWPVDDKQKRFVDALTYMGYTVRTRPLRENTDENGDTSRRASLDIELVTDLLTTESRYDVAVLLSGDGDFERPVEVLRARGKKVIVASIPEMTSAELRNAADEYVDLASIREQVERPGYRLPSEGSGR	not soluble
KFDESALVPEDQFLAQHPGPATIRVSKPNENDGQFMEITVQSLSENVGSLKEKIAGEIQIPANKQKLSGKAGFLKDNMSLAHYNVGAGEILTLSLRER	soluble
MAHHHHHHMDSQGPFLVIPTKRGAVPTLTPAQANAILEPSERILATSVFEAMDFVKPCIEAGMQLSTYCGLSGYKTVLTLRSSFQGLHASASSSDTAVAGDNERGRAVISFEKWRDVVKATRPTFAVAVHESLPLCEPLNKRRRVAATRSETWLANTEEASDLGCTILPSISAGCTHDGGYIDAVPRGENSYEFFQTLQALQLSPKKCTMCVAPSISVLLAAMVSNVSLLECPLPWTLAEKGVALLLPLEEATTTSPEPVVPLLDLNDNVYALDINPIAEGCDCFTCKRHCRAYLHHLLTVQEMNSDILLVMHNLAQVVLLVRAYRCASAPTREALVSRVASAL	not soluble
MFEFEQLPNEMQLEVLKRTEFRTIQSMKTVSKRVQHFIQLYQRYMLPIPIRQMFVTPEKISFTLANSNEINTINHDDMDKYLRGAKVDLLWLEMNGSEDEPIEFLQKVIQKTNFTRIDCLKLGSSKVECDVTKLENCMASLVCAELIVDWRFRVPEDFFNELHVEKLTRLTIGNQESRNFYHPLSGDHFRKFRGDWLEIGQNRLRSSDISTFLKNWKLGSISWIEMYNIVISFPIPELLILLKNESCQKTPTTWKVSRDLDEGKEELEIGFFKSTNFSKQPSLVIRQLKILEYLW	not soluble
VDIYASMTPAKDVGGDFYDFFQIDDERIGLVIADVSGKGVPASLFMAVSRTLLRATALRGVSSAECLTYANKLLCKESLDSMFVTVFYGIYHYKTGMMDYTNAGHNPPYLLRGGRTVECLPVASNFVVGVFDDIEFESNTLTFGIGDTLLLYTDGVTEAFNDKREQFSESNLQDILASMHESSSAKEVVTSVLQSVKTFSGDYPQSDDITLLSLQRIK	not soluble
MTSIHVQVPATTANIGAGFDCLGAALSLHNQFQFRLAGESEPFFSLELVGADVETQKLEATADNLLYRAFAKVFATLGQPVPHVNIAIDLKVPLSRGLGSSATAIVGGLVGANALAGSPLSQREIMNLAIEMEGHPDNVVPALLGGCQLSVKHQQDWVI	not soluble
TALADVVITGYQTLSKERATGSFDKVDSSVLSSRPTADLSTALQGLVAGMQATEKEDGSIDFLIRGSSSLYADKKPLLVVDGFPIQGDFSSINPNDVESVTVLKDAAAASIWGARSANGVIVVTTKKGKKDK	not soluble
MPKNKGKGGKNRRRGKNENDFMKRELDLKEEGQEYGQVSKMLGNGRVQVFCFDGKQRVCHIRGKLRKKVWINVGDIILVGLRDYQDDKGDVILKYTPDEARRLKNEGLIPENAKLNENDEQDEGEVEFLDHVGDEGEAGEAKSDSDSSDSDSEKSDEEAGSDKEEESDDDSEEESDEDSDDSDNIREEDLAAGRGFKEDTRRGGNRGGKNKYGKRR	soluble
MGSDKIHHHHHHMSMVEEKFKKLGVENAPGQELLQKGVKLDLKGEKILGEKIDFSHGDVDAHKPLPNSLELFIEGFNKGGIQAYTEYKGNKEIREYIAGKLSEYIKMNIPADNLIITPGTQGALFLATGSLITRGTKVSIVEPDYFANRKLVEFFEGEIVPIELDYFNVNEKKAGLNLKQLEEAFKSGVELFLFSNPNNPTGVIYSDEEITEIARLVNKYNVTVIADELYSRQIFDNREFYHLITKNINQDKLITIIGPSKTESLSGFRLGIAYGSPTIIKRMEKLQAITTLRTAGYNQAVLKSWFSEPDGFMKDRIEKHQAIRDNLIEKFKTIDGIKIRKTEAGSYIFPTLPELEVNLGDFVKILRIYANVIVTPGTEFGKSFINSIRLNFSQDEKKAAEGVDRILEMIRRYKK	not soluble
MGSDKIHHHHHHMSLEATDSKAMVLLMGVRRCGKSSICKVVFHNMQPLDTLYLESTSNPSLEHFSTLIDLAVMELPGQLNYFEPSYDSERLFKSVGALVYVIDSQDEYINAITNLAMIIEYAYKVNPSINIEVLIHKVDGLSEDFKVDAQRDIMQRTGEELLELGLDGVQVSFYLTSIFDHSIYEAFSRIVQKLIPELSFLENMLDNLIQHSKIEKAFLFDVNSKIYVSTDSNPVDIQMYEVCSEFIDVTIDLFDLYKAPVLRNSQKSSDKDNVINPRNELQNVSQLANGVIIYLRQMIRGLALVAIIRPNGTDMESCLTVADYNIDIFKKGLEDIWANARASQAKNSIEDDV	not soluble
MIATGDALNLLSKMTFKRLITLLKVFVSYQYSKITGNVVHPSVPYSIAIEPTTSCNLRCPECPSGLRSFTRPTGMLNIAMFSKIIDELYQQISYLIFYFQGEPYLNTSFLEMVKYASSKGIYTATSTNAHYLTDENARKTVESGLDRLIISIDGTTQEVYEQYRIGGSLEKVLEGTKNILAWKKKLHASTPHVIFQFLVVKPNQHQLKEVKKMAKELGVGEVRFKTAQIHDYENGSPLIPDIDKYARYRKNADNTYSIKNSLLNHCWKMWHSCVITWDGKIVPCCFDKDAHLVMGELKTNTFKEIWNSAPYIQFRKSLLKSRSEIDMCKNCTEGTTVWA	not soluble
MADIVQLKENGVVKYMKTHADAIDGVEGKLVKAVGNETVLGTKNFQDGIQIGGKSVSVNAKPTYEVVKDYWDGTGAYLTESQSVTISNSSNVDEIVLIFSRYNDNGGGIVHSIPVTPNITKLKYELPAVAWVGSASTDPTIAYKKISISKSGTSLVITGDTANTLNEANKKIVFREIGVMRRK	not soluble
TDPDADRLGVEIRQPDGSYLNLSGNQIGAIIAKYILEAHKTAGTLPANAALCKSIVSTELVTKIAESYGATMFNVLTGFKFIGEKIHEFETQHNYTYMFGFEESFGYLIKPFVRDKDAIQAVLIVAEIAAYYRSRGMTLADGIEEIYKQYGYFSE	not soluble
